Source: the supplement of paper PMC9112550, “Optimization of the antimicrobial peptide Bac7 by deep mutational scanning” (BMC Biology, 2022)

System: Escherichia coli TOP10
Assay: shrunken log2 fold change of peptide-encoding DNA abundance (4.5 h post-induction vs induction); higher = less antimicrobial activity (less host growth inhibition)
Details: time post-induction: 4.5 h; library: site-saturation at positions 5, 18, 19, 20
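Also: peptides expressed intracellularly from a pBAD plasmid library in pooled LB shake-flask culture, induced with 0.3% L-arabinose, DNA abundance read by NGS, three biological replicates, DESeq2 with apeglm shrinkage.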

| Sequence | shrunken log2 fold change |
| --- | --- |
| RRIRYRPPRLPRPRPRPKAYPRP | 0.00787 |
| RRIRGRPPRLPRPRPRPHSLPRP | -0.0762 |
| RRIRNRPPRLPRPRPRPDKVPRP | -0.00145 |
| RRIRHRPPRLPRPRPRPDNYPRP | -0.0274 |
| RRIRLRPPRLPRPRPRPTDLPRP | -0.0813 |
| RRIRYRPPRLPRPRPRPTQQPRP | -0.00797 |
| RRIRVRPPRLPRPRPRPNHDPRP | -0.369 |
| RRIRCRPPRLPRPRPRPCKHPRP | -0.339 |
| RRIRMRPPRLPRPRPRPVGYPRP | 0.515 |
| RRIRHRPPRLPRPRPRPLTGPRP | -0.00273 |
| RRIRTRPPRLPRPRPRPQPNPRP | 0.0183 |
| RRIRIRPPRLPRPRPRPHVLPRP | -0.198 |
| RRIRWRPPRLPRPRPRPTGRPRP | 0.536 |
| RRIRNRPPRLPRPRPRPLWFPRP | 0.0185 |
| RRIRLRPPRLPRPRPRPNPPPRP | 0.0837 |
| RRIRYRPPRLPRPRPRPVNVPRP | -0.0979 |
| RRIRNRPPRLPRPRPRPHQEPRP | -0.00146 |
| RRIRQRPPRLPRPRPRPYAFPRP | -0.175 |
| RRIRDRPPRLPRPRPRPMSWPRP | 0.262 |
| RRIRCRPPRLPRPRPRPHDIPRP | -0.00735 |
| RRIRPRPPRLPRPRPRPNKEPRP | -0.406 |
| RRIRVRPPRLPRPRPRPHDSPRP | 0.0311 |
| RRIRWRPPRLPRPRPRPIEMPRP | 0.467 |
| RRIRFRPPRLPRPRPRPVTAPRP | -0.0836 |
| RRIRFRPPRLPRPRPRPHCYPRP | 0.149 |

| Sequence | shrunken log2 fold change |
| --- | --- |
| RRIRQRPPRLPRPRPRPKSCPRP | 0.000945 |
| RRIRVRPPRLPRPRPRPAKLPRP | 0.139 |
| RRIRQRPPRLPRPRPRPNIHPRP | -0.619 |
| RRIRDRPPRLPRPRPRPQRPPRP | 0.0335 |
| RRIRNRPPRLPRPRPRPHNFPRP | -0.436 |
| RRIRLRPPRLPRPRPRPQVSPRP | 0.0548 |
| RRIRWRPPRLPRPRPRPGSMPRP | -0.0806 |
| RRIRNRPPRLPRPRPRPGLAPRP | 0.415 |
| RRIRYRPPRLPRPRPRPNVVPRP | -0.274 |
| RRIRLRPPRLPRPRPRPVDEPRP | -0.0573 |
| RRIRWRPPRLPRPRPRPYRAPRP | -0.399 |
| RRIRPRPPRLPRPRPRPFWGPRP | -0.0925 |
| RRIRKRPPRLPRPRPRPHCCPRP | -0.0219 |
| RRIRQRPPRLPRPRPRPSNQPRP | -0.359 |
| RRIRYRPPRLPRPRPRPITTPRP | 0.0271 |
| RRIRRRPPRLPRPRPRPPGHPRP | 0.507 |
| RRIRRRPPRLPRPRPRPSYWPRP | -0.0367 |
| RRIRRRPPRLPRPRPRPVIRPRP | 0.1 |
| RRIRWRPPRLPRPRPRPVHKPRP | 0.0181 |
| RRIRERPPRLPRPRPRPPIMPRP | -0.314 |
| RRIRTRPPRLPRPRPRPDQNPRP | 0.0691 |
| RRIRVRPPRLPRPRPRPAIQPRP | -0.0625 |
| RRIRLRPPRLPRPRPRPEAPPRP | 0.462 |
| RRIRMRPPRLPRPRPRPGTMPRP | -0.115 |
| RRIRFRPPRLPRPRPRPFYTPRP | -0.89 |
